For test [1], the target named is T1, human CXCR4 (human, UniProt P61073 1-352).
T1 construct: also called CXCR4 receptor; C-X-C chemokine receptor type 4
Put plainly: FACS, hybridoma supernatant pre-incubated with human CXCR4 transfected HEK293T cells, competitor Alexa-647 SDF-1. (Flow cytometry measures light scatter and fluorescence of single cells or particles in a stream.)

Test [2] has as its target T1, human CXCR4. As to the kind of experiment: FACS binding under antigen limiting conditions on Jurkat cells, Kinexa software fit; experiment 1. The method, then:
(§1) FACS binding under antigen limiting conditions was utilized to estimate the affinities of antibodies to the CXCR4 receptor. Jurkat cells were washed in RPMI1640 medium and plated at 50,000 cells per well in duplicate for incubation with 4-fold dilution series of antibody in duplicate, ranging between 150,000 and 0.143 pM. Incubation was carried out at 4° C. overnight, followed by wash step (3 times in PBS) and staining with Goat anti-human Fc−Cy5 secondary antibody+5 μg/mL 7-Amino-Actinomycin (7AAD) for 40 minutes at 4° C. Samples were analyzed on a FACSCaliber following another round of 3 washes in PBS. […] The negative geo mean was entered into Kinexa analysis software as an estimate of antibody “depletion” under limited antigen conditions, and the equilibrium dissociation constant (KD) was estimated from the curve fit.

In test [3] the target is T1, human CXCR4. Put plainly: cell-based or functional assay.
Test [4] has as its target T2, cynomolgus monkey CXCR4 (cynomolgus monkey, UniProt Q28474 1-352).
T2 construct: whole, on cells; On transiently transfected HEK293T cells or endogenous on the cynomolgus T-cell line HSC-F; also called Cynomolgus CXCR4
Put plainly: Kinexa-based on-cell affinity (FACS) on cynomolgus T-cell line HSC-F.

For a further test, the target named is T3, CCR4 (human, UniProt P51679 1-360).
T3 construct: whole, on cells
T3 sequence (looked up): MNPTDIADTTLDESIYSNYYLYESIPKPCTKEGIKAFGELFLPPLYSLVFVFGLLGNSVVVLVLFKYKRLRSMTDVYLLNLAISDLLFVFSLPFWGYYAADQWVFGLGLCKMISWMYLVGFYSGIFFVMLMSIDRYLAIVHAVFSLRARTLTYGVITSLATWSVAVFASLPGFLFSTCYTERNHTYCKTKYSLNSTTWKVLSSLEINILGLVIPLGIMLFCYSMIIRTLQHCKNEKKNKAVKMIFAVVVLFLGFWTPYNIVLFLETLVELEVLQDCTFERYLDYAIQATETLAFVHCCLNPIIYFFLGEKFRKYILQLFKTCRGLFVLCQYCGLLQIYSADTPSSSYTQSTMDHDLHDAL
Put plainly: FACS on CCR4 transfected CHO cells, parental cells as control. Here is the method: (§2) CXCR4 is a GPCR, with few close homologues in the family of human GPCRs. Among these are CXCR3 and CCR4. […] The samples were analyzed on a FACS Caliber cytometer.

Test [5] has as its target T1, human CXCR4. Put plainly: FACS competition on formalin-fixed Namalwa cells: 10 nM biotinylated SDF-1 bound first, then displaced by 6C7; streptavidin-PE readout.
The next test addresses T4, human CXCR3 (human, UniProt P49682 1-368).
T4 construct: whole, on cells
T4 sequence (looked up): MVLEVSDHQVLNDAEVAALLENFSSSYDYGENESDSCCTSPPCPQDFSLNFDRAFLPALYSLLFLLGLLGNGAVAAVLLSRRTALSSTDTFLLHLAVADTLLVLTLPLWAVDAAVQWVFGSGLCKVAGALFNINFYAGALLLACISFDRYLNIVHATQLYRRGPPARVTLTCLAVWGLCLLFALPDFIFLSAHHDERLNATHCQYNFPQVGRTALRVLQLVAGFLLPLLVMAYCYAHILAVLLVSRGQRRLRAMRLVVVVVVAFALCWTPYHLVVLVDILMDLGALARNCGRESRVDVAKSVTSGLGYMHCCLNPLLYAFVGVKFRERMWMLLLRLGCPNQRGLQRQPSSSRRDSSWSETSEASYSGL
As to the kind of experiment: FACS on human CXCR3 transfected HEK293 cells, parental cells as control. Here is the method: as §2

Test [6] has as its target T1, human CXCR4. Put plainly: FACS binding under antigen limiting conditions on Jurkat cells, Kinexa software fit; experiment 2. Here is the method: as §1
For test [7], the target named is T1, human CXCR4. Put plainly: cell-based or functional assay. The source holds these as a separate data set.
In test [8] the target is T1, human CXCR4. As to the kind of experiment: cell-based or functional assay. This is another data set of the same source.
Test [9] deals with T2, cynomolgus monkey CXCR4. Put plainly: FMAT, hybridoma supernatant on HEK293T cells transiently overexpressing full-length cynomolgus CXCR4. Here is the method:
(§3) Supernatants collected from harvested cells were tested to assess the ability of the secreted antibodies to bind to HEK293T cells transiently overexpressing either full-length human, murine or cynomolgus monkey CXCR4. […] Cells diluted in PBS containing 2% FBS were seeded at a density of 3000 expressing and 15000 mock transfected cells per well in 384 well plates (Corning Costar, catalog #3712). Immediately after plating, 15 or 20 μl/well of hybridoma supernatants and 10 μl/well of secondary antibody (Goat anti-human IgG Fc Cy5, final concentration 750 ng/ml) were added and plates incubated for 3 hours at room temperature prior to reading the fluorescence on the FMAT 8200 instrument (Applied Biosystems). The product of number of positive events and fluorescence intensity was used as a measure of binding strength.

Test [10] addresses T1, human CXCR4. Put plainly: FMAT, hybridoma supernatant on HEK293T cells transiently overexpressing full-length human CXCR4. The method, then:
as §3

In test [11] the target is T5, mouse CXCR4 (mouse, UniProt P70658 1-359).
T5 construct: Full-length murine CXCR4 on transiently transfected HEK293T cells; also native on mouse lymphocytes and the EL4 line; also called murine CXCR4
As to the kind of experiment: FMAT, hybridoma supernatant on HEK293T cells transiently overexpressing full-length mouse CXCR4. Here is the method: as §3

Test [12] addresses T5, mouse CXCR4. As to the kind of experiment: FMAT, hybridoma supernatant on HEK293T cells transiently overexpressing mouse CXCR4. Here is the method:
as §3

Where two headings read alike, the source gives them in different places.

T5 sequence (P70658 whole entry): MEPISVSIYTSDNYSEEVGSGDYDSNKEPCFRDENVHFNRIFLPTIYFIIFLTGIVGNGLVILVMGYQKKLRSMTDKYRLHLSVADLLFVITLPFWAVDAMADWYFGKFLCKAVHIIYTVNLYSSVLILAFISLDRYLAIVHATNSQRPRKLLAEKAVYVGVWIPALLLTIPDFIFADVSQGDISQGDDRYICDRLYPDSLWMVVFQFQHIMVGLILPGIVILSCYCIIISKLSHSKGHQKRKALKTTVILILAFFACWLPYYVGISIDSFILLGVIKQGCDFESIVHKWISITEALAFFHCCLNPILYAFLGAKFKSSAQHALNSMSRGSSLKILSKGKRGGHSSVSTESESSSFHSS
T1 sequence (P61073 whole entry): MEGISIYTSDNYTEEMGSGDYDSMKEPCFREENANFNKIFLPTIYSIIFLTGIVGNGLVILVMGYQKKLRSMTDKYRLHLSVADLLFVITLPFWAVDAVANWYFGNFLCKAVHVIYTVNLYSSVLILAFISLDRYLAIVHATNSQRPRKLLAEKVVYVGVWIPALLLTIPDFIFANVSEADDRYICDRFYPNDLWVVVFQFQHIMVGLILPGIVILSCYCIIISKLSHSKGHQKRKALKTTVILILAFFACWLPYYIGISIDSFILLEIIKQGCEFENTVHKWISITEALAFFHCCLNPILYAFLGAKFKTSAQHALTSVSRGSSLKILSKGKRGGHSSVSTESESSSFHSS
T2 sequence (Q28474 whole entry): as the sequence (P61073 whole entry) above, with M24I, N35H, K38R, R146K, N176S counted along it

B1: 6C7 (antibody, V domains shown)
VH: QVQLVESGGGVVQPGRSLRLSCAASGFTFSNYVMHWVRQAPGKGLEWVAVIWYDGSNKYYADSVKGRFTISRDNSKNTLSLQMNSLRAEDTAVYYCERGEGYYGSGSRYRGYYYGMDVWGQGTTVTVSS
VL: DIQMTQSPSSLSASVGDRVTITCRASQGIRTDLGWYQQKPGKAPKRLIYAASSLQSGVPSRFSGSGSGTEFTLTISSLQPEDFATYYCLQHNSYPRTFGQGTKVEIK
notes: Fully human monoclonal antibody from XenoMouse hybridoma; also called antibody 6C7; mAb 6C7
Usually Kd stands for the constant that tells how readily two partners part at equilibrium. By IC50 is commonly meant the concentration that inhibits the measured activity by half. Take B1: the “% Inhibition of SDF-1 binding” value in the test with human CXCR4 [1] stood at 88%. Besides, in the test with human CXCR4 [2], the Kd turned out to be 0.242 nM. Moreover, in the test with human CXCR4 [3], the “Jurkat chemotaxis inhibition IC50” value came to 0.068 nM. Besides, the Kd with cynomolgus monkey CXCR4 [4] came out at 0.221 nM. The binding result with CCR4 is “no binding (tested: 10 and 100 ug/ml)”. In the test with human CXCR4 [5], the concentration for half-maximal inhibition (IC50) came to 0.123 nM and the “IC50 (read off the curve)” value is about 0.1 nM. Moreover, the binding result with human CXCR3 was “no binding (tested: 10 and 100 ug/ml)”. In the test with human CXCR4 [6], this molecule had a Kd of 0.768 nM. Further, in the test with human CXCR4 [7], the “Jurkat chemotaxis inhibition IC50 pM” value is 74.7 pM and the “Jurkat chemotaxis inhibition IC50” value was found to be 0.0112 µg/mL. In addition, in the test with human CXCR4 [8], the “% Inhibition 1 hr (Jurkat chemotaxis)” value amounted to 99.6% and the “% Inhibition 24 hr (Jurkat chemotaxis)” value came to 95%. In the test with cynomolgus monkey CXCR4 [9], this molecule showed a Count of 125, an FL1 of 3470 and an FL1 x count of 434000. In the test with human CXCR4 [10], this molecule gave a Count of 199, an FL1 of 7990 and an FL1 x count of 1.59e+06.

B2: 5C9 (antibody, V domains shown)
VH: QVQLVESGGGVVQPGRSLRLSCAASGFTFSSYGLHWVRQSPGKGLEWVAVISYDGSKKYYADSVKGRFSISRDNSKNTLYLQMNSLRAEDTAVYYCARDRPSRYSSCMDVWGQGTTVTVSS
VL: QSALTQPASVSGSPGQSITISCTGTSSDVGSNNFVSWYQQHPGKAPKLMIYEVSKRPSGVSNRFSGSKSGNTASLTISGLQAEDEADYYCCSYAGSNTLVFGGGTKLTVL
notes: Fully human monoclonal antibody from XenoMouse hybridoma (lambda light chain)
B2: in the test with human CXCR4 [1], the “% Inhibition of SDF-1 binding” value is -1%. In the test with mouse CXCR4 [11], the Count came out at 72, the FL1 turned out to be 4780 and the FL1 x count came out at 344000. Moreover, in the test with mouse CXCR4 [12], the binding result is listed as “no binding”. Further, in the test with human CXCR4 [7], the “Jurkat chemotaxis inhibition IC50 pM” value amounted to 28200 pM and the “Jurkat chemotaxis inhibition IC50” value was 4.22 µg/mL. Also, in the test with human CXCR4 [8], the “% Inhibition 1 hr (Jurkat chemotaxis)” value was determined as 74% and the “% Inhibition 24 hr (Jurkat chemotaxis)” value is 44%. In the test with cynomolgus monkey CXCR4 [9], the Count was 106, the FL1 was determined as 7320 and the FL1 x count was found to be 776000. In the test with human CXCR4 [10], this molecule displayed a Count of 233, an FL1 of 8800 and an FL1 x count of 2.05e+06.

The values are drawn from patent publication US20140314784A1 (MEDLMMUNE, published 2014).
